Our source for the binding result and OD450-blank values is US20240158474A1 (SINO BIOLOGICAL, published 2024).

Assay [1] has as its target T1, HPV45 VLP protein (human papillomavirus type 45; human …, UniProt P36741 1-478; P06416 474-499).
T1 construct: range 1-478;range 474-499; Complete VLP protein used as coating protein; also called HPV45L1(1-478L)+HPV33L1(474K-499K)
T1 sequence: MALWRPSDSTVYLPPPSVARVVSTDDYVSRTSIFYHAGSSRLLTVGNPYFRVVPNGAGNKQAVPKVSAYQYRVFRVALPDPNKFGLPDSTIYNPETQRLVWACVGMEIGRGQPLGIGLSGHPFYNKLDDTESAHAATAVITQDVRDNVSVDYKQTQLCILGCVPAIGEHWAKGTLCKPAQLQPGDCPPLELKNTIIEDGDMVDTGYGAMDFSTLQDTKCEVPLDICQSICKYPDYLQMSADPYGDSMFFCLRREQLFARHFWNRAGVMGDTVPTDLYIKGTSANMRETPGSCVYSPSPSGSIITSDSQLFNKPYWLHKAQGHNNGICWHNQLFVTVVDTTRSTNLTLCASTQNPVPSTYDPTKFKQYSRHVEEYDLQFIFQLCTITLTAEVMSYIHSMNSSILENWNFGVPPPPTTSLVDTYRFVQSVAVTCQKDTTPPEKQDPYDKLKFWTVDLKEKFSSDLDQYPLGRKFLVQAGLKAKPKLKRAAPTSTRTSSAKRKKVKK
The experiment in a line: double-antibody sandwich ELISA on the mixture of 13 HPV VLPs.

The next assay deals with T2, HPV35 VLP protein (human papillomavirus type 35; human …, UniProt P27232 1-472; P06416 474-499).
T2 construct: range 1-472;range 474-499; Complete VLP protein used as coating protein; also called HPV35L1(1-472L)+HPV33L1(474K-499K)
T2 sequence: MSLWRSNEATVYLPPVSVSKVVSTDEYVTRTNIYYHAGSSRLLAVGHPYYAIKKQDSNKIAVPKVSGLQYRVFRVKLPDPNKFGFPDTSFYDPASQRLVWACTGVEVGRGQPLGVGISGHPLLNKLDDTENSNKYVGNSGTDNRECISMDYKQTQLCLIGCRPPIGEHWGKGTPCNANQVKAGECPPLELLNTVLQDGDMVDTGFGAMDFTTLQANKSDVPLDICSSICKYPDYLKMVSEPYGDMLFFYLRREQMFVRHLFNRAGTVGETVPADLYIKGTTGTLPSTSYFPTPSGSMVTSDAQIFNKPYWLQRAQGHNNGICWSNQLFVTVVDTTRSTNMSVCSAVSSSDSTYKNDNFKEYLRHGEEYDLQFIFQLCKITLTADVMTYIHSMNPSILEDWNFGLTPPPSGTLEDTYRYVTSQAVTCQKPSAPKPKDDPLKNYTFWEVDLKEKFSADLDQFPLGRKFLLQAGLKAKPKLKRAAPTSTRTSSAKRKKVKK
The assay is described as above.

The target in a further assay is T3, HPV31 VLP protein (human papillomavirus type 31; human …, UniProt P17388 1-475; P06416 474-499).
T3 construct: range 1-475;range 474-499; Complete VLP protein used as coating protein; also called P31SHELL(1-475Y)+HPV33L1(474K-499K)
T3 sequence: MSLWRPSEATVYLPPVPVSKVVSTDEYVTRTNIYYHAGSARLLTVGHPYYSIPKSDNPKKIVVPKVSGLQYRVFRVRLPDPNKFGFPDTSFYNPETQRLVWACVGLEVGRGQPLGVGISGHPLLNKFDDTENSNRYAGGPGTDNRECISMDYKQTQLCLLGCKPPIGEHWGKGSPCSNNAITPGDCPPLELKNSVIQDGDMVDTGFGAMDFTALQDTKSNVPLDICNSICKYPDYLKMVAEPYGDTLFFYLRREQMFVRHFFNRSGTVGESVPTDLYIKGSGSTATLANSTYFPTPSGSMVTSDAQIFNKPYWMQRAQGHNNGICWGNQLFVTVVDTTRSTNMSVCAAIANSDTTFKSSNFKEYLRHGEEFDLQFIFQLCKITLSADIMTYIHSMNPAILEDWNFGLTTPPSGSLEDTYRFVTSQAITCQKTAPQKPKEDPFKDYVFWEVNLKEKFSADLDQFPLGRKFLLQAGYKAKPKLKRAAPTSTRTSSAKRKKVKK
The description is as above.

For assay [2], the target named is T1, HPV45 VLP protein. As to the kind of experiment: indirect ELISA, VLP coated at 2 µg/mL, antibody 10 ng/mL, HRP goat anti-rabbit Fc. (In general: In an ELISA, binding on a coated surface is turned into a signal by an enzyme label.)
The next assay has as its target T4, HPV33 VLP protein (human papillomavirus type 33, UniProt P06416 1-499).
T4 construct: Complete VLP protein; no limits of the construct printed, whole entry named; also called HPV33L1
T4 sequence: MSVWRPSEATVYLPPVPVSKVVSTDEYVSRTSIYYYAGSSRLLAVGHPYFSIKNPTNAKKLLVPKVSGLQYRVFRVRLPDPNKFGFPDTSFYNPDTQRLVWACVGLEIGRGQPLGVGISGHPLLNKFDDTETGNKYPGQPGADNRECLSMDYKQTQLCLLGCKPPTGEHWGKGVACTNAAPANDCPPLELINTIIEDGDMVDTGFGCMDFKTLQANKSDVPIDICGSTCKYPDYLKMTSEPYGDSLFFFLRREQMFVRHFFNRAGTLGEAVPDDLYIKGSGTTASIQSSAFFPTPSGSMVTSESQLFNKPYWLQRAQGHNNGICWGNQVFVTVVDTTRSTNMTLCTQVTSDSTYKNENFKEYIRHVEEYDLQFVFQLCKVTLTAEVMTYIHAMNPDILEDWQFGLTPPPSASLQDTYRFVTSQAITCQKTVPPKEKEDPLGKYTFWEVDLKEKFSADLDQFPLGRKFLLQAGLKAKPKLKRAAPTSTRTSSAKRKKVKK
The description is as above.

B1: monoclonal antibody HPV6-R003 (antibody, V domains shown)
VH: QQQLEESGGGLVKPGGTLTLTCKASGIDLSNYYMCWVRQAPGKGLEWIGCIYTGSGRTYYASWAKGRFTISKASSTTVTLQMTSLTAADTATYFCARDYLGWRASNIWGPGTLVTVSS
VL: ELVMTQTPSSVSAAVGGTVTINCQASQSVYSNNLVWYQQKPGQPPKLLIYGASTLASGVPSRFKGSGSGTQFTLTISDVVCDDAATYYCGGYVSDSTDGTAFGGGTEVVVKG
notes: here built from variable plus constant region so that the signal peptides are left out; In the sandwich ELISA the same antibody is used as coating antibody and, labelled with horseradish peroxidase, as detection antibody; also called anti-HPV6 L1 protein antibody
For the molecule B1, the binding result with HPV45 VLP protein [1] is “no binding (tested: mixture 50 ng/mL, each subtype 1/13)”; with HPV35 VLP protein it was “no binding (tested: mixture 50 ng/mL, each subtype 1/13)”; with HPV31 VLP protein, “no binding (tested: mixture 50 ng/mL, each subtype 1/13)”. For the same molecule, the OD450-blank was 0.061 OD450 with HPV45 VLP protein [2] and 0.047 OD450 with HPV33 VLP protein.
